Reference: US12134610B2, “Somatostatin subtype-2 receptor (SST2R) targeted therapeutics and uses thereof” (priority 2022, dated 2024)
Read-outs that look alike come from different tables or passages of the source.

Legend:
[1] = target: T1, human somatostatin receptor subtype 2 (Homo sapiens, UniProt P30874); assay: Functional cAMP assay for SSTR2 agonists (HTRF) in CHO-K1 cells; type: cell-based; conditions: CHO-K1 cells stably expressing human SST2, 20 min; read-out: hSST2 cAMP Avg EC50
T1 construct: expressed in transfected cells
T1 sequence (P30874 whole entry): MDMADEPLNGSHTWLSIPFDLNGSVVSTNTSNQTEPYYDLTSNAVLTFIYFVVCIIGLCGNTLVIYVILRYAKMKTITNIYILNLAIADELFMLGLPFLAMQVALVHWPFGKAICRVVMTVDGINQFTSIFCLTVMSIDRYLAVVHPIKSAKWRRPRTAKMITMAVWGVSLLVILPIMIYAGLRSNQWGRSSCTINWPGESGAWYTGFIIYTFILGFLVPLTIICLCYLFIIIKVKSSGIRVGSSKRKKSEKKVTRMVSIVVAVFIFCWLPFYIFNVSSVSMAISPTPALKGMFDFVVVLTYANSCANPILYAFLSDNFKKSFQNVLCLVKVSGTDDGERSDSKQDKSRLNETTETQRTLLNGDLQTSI
Method in brief: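 Agonism scored as loss of NKH477 (1.6 μM)-driven cAMP, with IBMX present, after 20 min, 37° C. exposure of stably transfected CHO-K1 cells to compound dilutions (typically 0-10,000 nM). Lysates read by time-resolved FRET; cAMP interpolated from standard curve and EC50 derived.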

[2] = test system: NCI-H524 (ATCC) human small cell lung cancer cells; type: cell-based; conditions: 2 h
Method in brief: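 CellTiter-Glo luminescence after a 2 h SMDC pulse (top dose 1 uM, 2-fold dilutions, 11 points), medium wash, then 70 h recovery. Cells were seeded at 5,000/well and dosed 24 h later. % inhibition vs control gave IC50 via four-parameter fit.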

[3] = H524 tumor biodistribution model: tumor and plasma levels of SMDC and MMAE by LC/MS-MS; type: in vivo, female Athymic nude mice; conditions: H524 tumor bearing nude mice; for level at time molar at 1 h: 1 h after 500 nmol/kg IV; for level at time molar at 4 h: 4 h after 500 nmol/kg IV
Description: In this example, 5 million H524 (Small Cell Lung Cancer) cells in 1:1 Matrigel: cold Media (RPMI1640) were injected into the subcutaneous (SQ) flank of female Athymic nude mice. Tumor volumes and body weights were measured twice a week. The tumors were allowed to grow until they reached 250-500 mm^3 in size before animals were randomized into groups (n=3/time point). Animals were injected intravenously with a SMDC of the present invention at a single dose of 500 nmol/kg. […] BLQ: Below Limit of Quantitation.

[4] = target: T2, SST2 (Homo sapiens, UniProt P30874); assay: PathHunter CHO-K1 SST2 internalization assay; type: cell-based; conditions: PathHunter CHO-K1 SST2, 90 min; read-out: Internalization EC50
T2 construct: host or cells: PathHunter CHO-K1 SST2 cells
T2 sequence (P30874 whole entry): as above
Method in brief: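 IC50 comes from four-parameter curves on background-corrected duplicates of Beta-Glo luminescence, read after 60 min at room temperature in the dark. Before that, CHO-K1 SST2 internalization cells (48 h post-seeding) received SMDC as eleven threefold dilutions, 10 uM highest final, for 90 min at 37 C.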

[5] = MMAE level 1 h after 500 nmol/kg IV of the conjugate
[6] = MMAE level 4 h after 500 nmol/kg IV of the conjugate
[7] = MMAE level 24 h after 500 nmol/kg IV of the conjugate
[8] = MMAE level 72 h after 500 nmol/kg IV of the conjugate
[9] = female, Athymic nude, mouse, plasma, read-out: Conjugate Plasma
[10] = female, Athymic nude, mouse, plasma, 24 h after 500 nmol/kg IV, read-out: Conjugate Plasma
[11] = female, Athymic nude, mouse, read-out: Conjugate Tumor
[12] = MMAE level 168 h after 500 nmol/kg IV of the conjugate
[13] = MMAE level 240 h after 500 nmol/kg IV of the conjugate

Structure (SMILES) | EC50 [1] [nM] | EC50 [2] [nM] | Conjugate Plasma (nM) ([3]; 72 h after 500 nmol/kg IV) | MMAE Plasma [3, 6] [nM] | MMAE Tumor [3, 6] [nM] | MMAE Plasma (nM) [3, 7] | MMAE Tumor [3, 7] [nM] | MMAE Plasma (nM) [3, 8] | MMAE Tumor [3, 8] [nM] | level at time molar at 4 h [3, 9] [nM] | level at time molar at 24 h [3, 10] [nM] | level at time molar at 4 h [3, 11] [nM] | EC50 [4] [nM] | other results
CC[C@H](C)[C@@H]([C@@H](CC(=O)N1CCC[C@H]1[C@H](OC)[C@@H](C)C(=O)N[C@H](C)[C@@H](O)c1ccccc1)OC)N(C)C(=O)[C@@H](NC(=O)[C@H](C(C)C)N(C)C(=O)OCc1ccc(NC(=O)[C@H](CCCNC(N)=O)NC(=O)[C@@H](NC(=O)[C@H](CCC(=O)O)NC(=O)CCOCCC(=O)NCCNc2ncc(-c3cc(C)cc(F)c3)c(N3CCC(N)CC3)c2-c2nc3ccc(Cl)cc3[nH]2)C(C)C)cc1C(=O)NCCN)C(C)C [Compound 49] | 0.14 | 17.3 | BLQ | 1.36 | 65.7 | BLQ | 83.5 | BLQ | 62.7 | 41.6 | 0.783 | 46.5 | 5.5 | Conjugate Tumor (nM) ([3]; 24 h after 500 nmol/kg IV): BLQ; Conjugate Tumor (nM) ([3]; 72 h after 500 nmol/kg IV): BLQ; MMAE Plasma [3, 5]: 9.2 nM; MMAE Tumor [3, 5]: 38 nM; level at time molar at 1 h [3, 9]: 354 nM; level at time molar at 1 h [3, 11]: 88.1 nM
CC[C@H](C)[C@@H]([C@@H](CC(=O)N1CCC[C@H]1[C@H](OC)[C@@H](C)C(=O)N[C@H](C)[C@@H](O)c1ccccc1)OC)N(C)C(=O)[C@@H](NC(=O)[C@H](C(C)C)N(C)C(=O)OCc1ccc(NC(=O)[C@H](CCCNC(N)=O)NC(=O)[C@@H](NC(=O)[C@@H](CS(=O)(=O)O)NC(=O)CCOCCC(=O)NCCNc2ncc(-c3cc(C)cc(F)c3)c(N3CCC(N)CC3)c2-c2nc3ccc(Cl)cc3[nH]2)C(C)C)cc1C(=O)NCCN)C(C)C [Compound 107] | 0.15 | 4 | BLQ | 2.26 | 123 | BLQ | 242 | BLQ | 141 | 83.1 | 0.441 | 94.2 | 2.2 | Conjugate Plasma (nM) ([3]; 168 h after 500 nmol/kg IV): BLQ; Conjugate Tumor (nM) ([3]; 168 h after 500 nmol/kg IV): BLQ; Conjugate Plasma (nM) ([3]; 240 h after 500 nmol/kg IV): BLQ; Conjugate Tumor (nM) ([3]; 240 h after 500 nmol/kg IV): BLQ; MMAE Plasma (nM) [3, 12]: BLQ; MMAE Tumor [3, 12]: 90.1 nM; MMAE Plasma (nM) [3, 13]: BLQ; MMAE Tumor [3, 13]: 25.2 nM; level at time molar at 24 h ([3]; female, Athymic nude, mouse, 24 h after 500 nmol/kg IV, read-out: Conjugate Tumor): 9.26 nM; level at time molar at 72 h ([3]; female, Athymic nude, mouse, 72 h after 500 nmol/kg IV, read-out: Conjugate Tumor): 1.64 nM
